Measured values as given in publication PMC9637222 (2022).

Experiments:
Assay in all cases: ITC
[1] = target: T1, SipB (tag-free, purified) (S. Typhimurium, UniProt Q56019 1-593)
T1 chain: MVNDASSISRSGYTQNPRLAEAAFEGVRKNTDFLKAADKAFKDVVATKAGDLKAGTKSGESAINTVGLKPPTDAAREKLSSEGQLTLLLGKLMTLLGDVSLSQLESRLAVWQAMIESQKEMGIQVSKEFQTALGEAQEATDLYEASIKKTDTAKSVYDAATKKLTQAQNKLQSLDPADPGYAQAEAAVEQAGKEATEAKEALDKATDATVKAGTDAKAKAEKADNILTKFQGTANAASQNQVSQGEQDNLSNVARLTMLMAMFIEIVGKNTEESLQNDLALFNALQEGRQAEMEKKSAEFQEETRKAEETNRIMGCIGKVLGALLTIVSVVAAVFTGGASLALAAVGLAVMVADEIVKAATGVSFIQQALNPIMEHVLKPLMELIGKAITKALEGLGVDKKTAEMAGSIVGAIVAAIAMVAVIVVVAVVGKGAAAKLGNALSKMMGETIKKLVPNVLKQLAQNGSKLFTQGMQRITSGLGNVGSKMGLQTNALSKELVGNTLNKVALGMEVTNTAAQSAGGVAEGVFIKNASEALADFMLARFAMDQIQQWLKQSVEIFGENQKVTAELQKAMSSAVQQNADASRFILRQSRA

[2] = target: T2, InvF (tag-free, purified) (S. Typhimurium, UniProt P69343 1-216)
T2 chain: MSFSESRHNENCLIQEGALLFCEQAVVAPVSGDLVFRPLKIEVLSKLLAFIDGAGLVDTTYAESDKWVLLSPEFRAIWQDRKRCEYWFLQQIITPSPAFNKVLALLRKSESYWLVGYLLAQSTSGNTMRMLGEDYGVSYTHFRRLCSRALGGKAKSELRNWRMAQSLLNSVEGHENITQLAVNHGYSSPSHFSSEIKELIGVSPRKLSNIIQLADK

[3] = target: T3, SipC (tag-free, purified) (S. Typhimurium, UniProt P0CL47 1-409)
T3 chain: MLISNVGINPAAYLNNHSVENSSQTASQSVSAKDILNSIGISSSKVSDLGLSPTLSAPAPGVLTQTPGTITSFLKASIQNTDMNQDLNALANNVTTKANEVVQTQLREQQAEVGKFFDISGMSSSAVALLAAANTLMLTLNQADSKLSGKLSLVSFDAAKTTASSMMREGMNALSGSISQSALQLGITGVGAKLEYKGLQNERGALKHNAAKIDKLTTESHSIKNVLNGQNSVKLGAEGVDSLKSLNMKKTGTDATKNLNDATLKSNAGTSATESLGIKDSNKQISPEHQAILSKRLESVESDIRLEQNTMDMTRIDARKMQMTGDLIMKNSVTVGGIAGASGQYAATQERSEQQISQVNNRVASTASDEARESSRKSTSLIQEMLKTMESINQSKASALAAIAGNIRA

B1: SicA (tag-free, purified) (natural protein)
chain: MDYQNNVSEERVAEMIWDAVSEGATLKDVHGIPQDMMDGLYAHAYEFYNQGRLDEAETFFRFLCIYDFYNPDYTMGLAAVCQLKKQFQKACDLYAVAFTLLKNDYRPVFFTGQCQLLMRKAAKARQCFELVNERTEDESLRAKALVYLEALKTAETEQHSEQEKE
Kd [1]: 530 nM | Kd [2]: 460 nM | Kd [3]: 610 nM
